The text below walks through data of PMC8395149, “Der f 38 Is a Novel TLR4-Binding Allergen Related to Allergy Pathogenesis from Dermatophagoides farinae” (International Journal of Molecular Sciences, 2021).

The experiment has as its target T1, recombinant TLR4 (UniProt O00206 24-631).
T1 construct: Toll-like receptor 4 (TLR4), recombinant protein from R&D Systems; also called Toll-like receptor 4; source: bought: R&D Systems
Nature of the experiment: BLI; Octet QKe; recombinant TLR4 (1 ug/mL) immobilised in PBS by amine coupling on an AR2G sensor, blocked with 1 M ethanolamine pH 8.5; sensors dipped in 2-fold dilutions of Der f 38 (6400-400 nM and blank); association 300 s, dissociation 1200 s in assay buffer. A general note: BLI is a label-free optical method that tracks binding on a fibre tip over time.

Where two headings read alike, the source gives them in different places.

T1 sequence (O00206 24-631): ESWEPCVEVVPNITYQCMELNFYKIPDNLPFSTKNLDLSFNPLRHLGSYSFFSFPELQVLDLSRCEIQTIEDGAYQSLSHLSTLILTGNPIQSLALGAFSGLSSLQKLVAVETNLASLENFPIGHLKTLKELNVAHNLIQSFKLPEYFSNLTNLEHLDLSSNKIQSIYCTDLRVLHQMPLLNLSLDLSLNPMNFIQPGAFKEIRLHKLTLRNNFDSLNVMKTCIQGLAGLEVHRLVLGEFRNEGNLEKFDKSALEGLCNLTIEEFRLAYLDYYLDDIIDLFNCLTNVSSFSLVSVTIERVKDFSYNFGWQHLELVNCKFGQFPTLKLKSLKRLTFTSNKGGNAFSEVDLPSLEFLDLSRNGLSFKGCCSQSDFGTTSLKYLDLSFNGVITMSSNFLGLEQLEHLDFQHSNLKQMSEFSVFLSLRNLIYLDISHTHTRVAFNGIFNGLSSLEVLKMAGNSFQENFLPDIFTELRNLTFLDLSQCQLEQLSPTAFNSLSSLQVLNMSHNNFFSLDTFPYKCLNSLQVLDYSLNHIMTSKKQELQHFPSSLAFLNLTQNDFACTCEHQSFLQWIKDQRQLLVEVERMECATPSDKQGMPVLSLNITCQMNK

As a reminder, the Kd is the equilibrium constant for the complex coming apart. With recombinant Der f 38 (natural protein), the Kd was 74 nM.

B1: recombinant MD2 (natural protein, UniProt Q9Y6Y9 19-160, looked up)
chain: QKQYWVCNSSDASISYTYCDKMQYPISINVNPCIELKRSKGLLHIFYIPRRDLKQLYFNLYITVNTMNLPKRKEVICRGSDDDYSFCRALKGETVNTTISFSFKGIKFSKGKYKCVVEAISGSPEEMLFCLEFVILHQPNSN
notes: MD2 (MD-2, lymphocyte antigen 96), recombinant protein from R&D Systems; source: bought: R&D Systems
In the case of B1, the Kd (both partners purified) amounted to 1.56 nM.
